Results taken from the DeepSol protein solubility set.

assay: soluble on expression in E. coli; label from the status in PepcDB or PDB records

| Sequence | soluble on expression in E. coli |
| --- | --- |
| MGSDKIHHHHHHMARDLQNHLLFEVATEVTNRVGGIYSVLKSKAPVTVAQYGDNYTLLGPLNKATYESEVEKLDWEDESIFPEELLPIQKTLMSMREKGVNFVYGNWLIEGAPRVILFELDSVRHFLNEWKADLWSLVGIPSPEHDHETNDAILLGYVVVWFLGEVSKLDSSHAIIGHFHEWLAGVALPLCRKKRIDVVTIFTTHATLLGRYLCAAGDVDFYNNLQYFDVDQEAGKRGIYHRYCIERAAAHTADVFTTVSQITALEAEHLLKRKPDGILPNGLNVVKFQAVHEFQNLHALKKDKINDFVRGHFHGCFDFDLDNTVYFFIAGRYEYKNKGADMFIESLARLNYRLKVSGSKKTVVAFLIMPAKTNSFTVEALKSQAIVKSLENTVNEVTASIGKRIFEHTMRYPHNGLESELPTNLDELLKSSEKVLLKKRVLALRRPYGELPPVVTHNMCDDANDPILNQIRHVRLFNDSSDRVKVIFHPEFLNANNPILGLDYDEFVRGCHLGVFPSYYEPWGYTPAECTVMGVPSITTNVSGFGAYMEDLIETDQAKDYGIYIVDRRFKSPDESVEQLADYMEEFVNKTRRQRINQRNRTERLSDLLDWKRMGLEYVKARQLGLRRAYPEQFKQLVGETISDANMNTLAGGKKFKIARPLSVPGSPKVRSNSTVYMTPGDLGTLQDANNADDYFNLSTNGAIDNDDDDNDTSAYYEDN | not soluble |
| MAHHHHHHMPVPVLLDNYAYFILSCKTKRCAVVDPADPTLVLNMLEVVRNLTQIDFMITDILTTHKHWDHAGGNMEMRALSQCSSERCRALLSPELNIYGSEVDRPHACNKLIKGSDELVVAGGGAKVVVLSTPGHTGGSVMFLVGDALPKEGEPQRLALFTGDCVFCGGCGALFEATSVDETLETVDIFNNNRTWVHPATGDIIHTDDVLIYVGHEYTERSLDMILSVQRTANQTGEQSAIATSNYCDTVAQARNGARRLRSCVVADDVYMKVTSMETKAPLHLRACTVPSTVTIEKKVNALLSLKRCVLEEFQGKPYASMAVQRAIYTSTKRNDTG | not soluble |
| MKVRASVKRICDKCKVIRRHGRVYVICENPKHKQRQG | soluble |
| MKLLFTSAFTQMFGYSNHMDQASNCQSTRNKIIKMMKKEEFPSGFQVPLHYPKYSKSDYEVMDDLRLDLLLKQYGFSFEGSLEDKRVFAIESFLWPDQL | soluble |
| MRINKPFSDDSNTVVFVSSKTYGVKEEAAHNPNVEFGVVLPTDFPAFNRALVQFLKRKKTKLNINLDSLIELYKKNENSGCFHTAIKTVITSVTFCETTPFTMKTKPEKNVEVAVQCAVEYHNLVKEYET | not soluble |
| MASTVLNVPIAQPENGSSDKIPKWSARAIKSLAMGELEARKLKYPSTGTEAILMGILVEGTSTVAKFLRGNGVTLFKVRDETLSLLGKSDMYFFSPEHPPLTEPAQKAIAWAIDEKNKSDVDGELTTAYLLLGVWSQKDSAGRQILEKLGFNEDKAKEVEKSMNEDVDLSFKKQGQLEHHHHHH | soluble |
| MGSDKIHHHHHHMNMKYQHIIEVDKELCIGCGLCKNDCPVNNIIIENKKSVIKKQDCLMCGHCAAICPTKAITLTGFDEPPIELTNKPKLDSDELLMAIKSRRSIRKFKDKEVSSEIIKQIIEAGRYTPSAKNSQDVSYIVLDNKKSIYENEAVKFFRKIKPIANIAIKYSKEVEIDDNFFFKHAPIAIMIITKDKISGSLAASNMALMAESYGLGVLFSGYFSDVANNSPKLKKLLGLKRSNHVLTTLVIGYPDVKYRRTAQKEVATVRYL | not soluble |
| MLIMNIRKIDDYTYEIPREGDMIVHGIVYSTDKLFKNTVEDGSLNQVVNVAKLPGIVEASYAMPDIHLGYGFPIGGVAAFDYDEGIISPGGVGYDINCGVALLRTGMNYAQIKPRIKDITDYIFQEVPSGLTSRKGFPVNQNDLQEILTSGLKWAVSRGLATELDMINTEDNGSIESHGTHVSKQAMQRGLSQIGTLGAGNHFLEIQRVSDIFDEDVARKFGLYKDEVTVMIHTGSRGLGHQVATDYLRELRESRESIKTSDPELISIHVKSKIGENYLDAMKSAANFAFVNRQMAIYGVRKVFKKFFDVEPELVYSLAHNIAKVEDHIVEGKTKSLIVHRKGATRAFGPGKSSPPFEDTGHPVLIPGSMGTASYVLVGVKENLIKSFGTACHGSGRVLSRNQAIKKFSSIVDRELEEKDVYARPATKRVLYEEAPGSYKNVDEVVAAVEGAHLARSIVRMVPLAVVKGLEHHHHHH | not soluble |
| MKEFWVWVEPFDRKIVSVALEAGANAVVIPEKGRVEEVKKVGRITVIAPDGDLKLGEDVVYVLIKGKEDEERAAKYPPNVKVIVETTDWTVIPLENLIAQREELYAVVKNAQEAEVALQTLEKGVKGVVLKSRDINEIKKVGQIVSEHEEKLELVTIKITKILPLGLGDRVCVDTISLLHRGEGMLVGNSSGGMFLVHAETEENPYVAARPFRVNAGAVHMYIRVPNNRTKYLCELKAGDKVMVYDYKGRGRVTYVGRAKVERRPMLLIEGRYENKKLSCILQNAETIRLTKPDGTPISVSELKEGDEVLGYVEEAGRHFGMKVEETIIEKLEHHHHHH | soluble |
| MALLDKLLTPVMNQYKQPINKCLKVLNKKNNKKTGVAKQNACMDKVWGQALAIITKQFVNKVCTAVAKKMNAKEWNCCKTYVVKVVNVTPYKRFNIVK | not soluble |
| MGSDKIHHHHHHEEQKVCHMDDECVEVGQWQLGLALGYGERSNPVRDYDDIPIYLAPTLAYYGDRWFFDNGNLGYTLADEELFSVNLTTSFSSDSAYFYRWDPSNIFISGTSQLSSTPSAFTSRFQAFGAEPEPVFNELEDRKFTLLGGAEAFIYTPMGIINLALAHDLFDVHSGMEAKVKWLYNLSWTDWKFEFAAVANWKSEEIINYYYGVRPSENTYWSERYRAGSGTNLGLELTTQYIMSEHWELLFLVRYTDLADEITASPLVTESYTNTYFIGTAYRF | not soluble |
| PIPAWASGNLLTQAIRQQYYKPIDVDRMYGTIDSPKLEELFNKS | soluble |
| ITEEEAKLFTEQLGDIIQFAEQLNELDTEGVEPTSHVLDMKNVLREDKPEKGLPVEDVLKNAPDHEDGQIR | not soluble |
| MGSDKIHHHHHHMTEIKYKVITKDAFALPYTIIKAKNQPTKGVIVYIHGGGLMFGKANDLSPQYIDILTEHYDLIQLSYRLLPEVSLDCIIEDVYASFDAIQSQYSNCPIFTFGRSSGAYLSLLIARDRDIDGVIDFYGYSRINTEPFKTTNSYYAKIAQSINETMIAQLTSPTPVVQDQIAQRFLIYVYARGTGKWINMINIADYTDSKYNIAPDELKTLPPVFIAHCNGDYDVPVEESEHIMNHVPHSTFERVNKNEHDFDRRPNDEAITIYRKVVDFLNAITMV | not soluble |
| MPYIEKLELKGFKSYGNKKVVIPFSKGFTAIVGANGSGKSNIGDAILFVLGGLSAKAMRASRISDLIFAGSKNEPPAKYAEVAIYFNNEDRGFPIDEDEVVIRRRVYPDGRSSYWLNGRRATRSEILDILTAAMISPDGYNIVLQGDITKFIKMSPLERRLLIDDISGIAEYDSKKEKALEE | soluble |
| MNNPKAISKQTLLRLPSYLSYLKSLPKQDGEYVSATMIASALGLNDVQVRKDLACVSKKGRPKLGYVAEELIRDIESFLGYDSLNDAIIVGAGRLGGALLSYEGFKEYGLNIVAAFDIDESKIGTEICGRKIFPLDKMKELCRRMKIRIGIITVPADSAQKVCDMLVDSGIYAIWNFAPVHLKVPDNILVQQENMAASLAVLSAHLAEAIKNNGIGKGDEENDENSE | not soluble |
| MAGDPMSESLAQYQEDLRRFSDELIRIQTPIKILDAIKWPREMEERFLSSKGTVLPAIKQDFYQNIALPFDPAKTQAELLSLKNDIHRRLGKKDKLGKLLVANVDQYRLVVDMLGHRGTPTFGKLSQELYGSASHRLHGDRHTLRQLGDRLSYIFSLPAARHMNKHHPKIISAPEAVNVLSQRLEKYFHSDDMRVRLSDGIVSDAAVGGDTVKLNSKAMFSESDLNVYEVHEGWVHVGTTLNGRAQPHATWLSVGSPRVAATQEGLAVLLEMLTLSSNPGRARRISDRVAAVDMAENGADFIEVFNYFRELNLSAKDSYRVTQRVFRGGMVEGGSFFTKDISYVRGYVENINFIRSAITSGLPELIPMLFLGKLAIEDIPVLYQACQEGILTPPKYLPPMFDNFSGLYAWFGFASGLAGIDLKGVQRHFTRLFKDVPSIDPSLELLDDTEFDNNSDAAALEHHHHHH | soluble |
